Laboratory results: the domain aggregation screens of Martell et al. (2025)

Assay: soluble fraction after stress (log2 fold change); higher = more stays soluble; pooled small domains, quantitative proteomics
Conditions: stress: pH 4
Summary of the method: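 After pH 4 stress, pooled custom libraries of small protein domains were quantified with high-throughput quantitative proteomics. Aggregation propensity is taken from the fold change in each domain's soluble amount following the acid stress. The scale is log2, where higher values mean more stayed soluble.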

Sequence	soluble fraction (log2)
HMGGTTLIAKQATVTGDIQFSSNLDIEGRVVGAISVEPGKEAMLHVVEGGSVEGEIRVPSAVINGKVTGDI	-0.775
HMHTADDFKQLAKQTSNGQLRTRYLALYLFKNGETRTQIATYLGVARGSVNTWVSNYLAHGLEGLQSKP	0.0388
HMGDWEDFWEKEARRRKLSLDYQVVRSLSRWSREYDWGEEDVEQFLSQFPEGETVKMEDVELYFE	-1.41
HMEDKPITKEQKQAMFALLREHFSGDEGNAVYTAVLEREGLAPGDKIMSSVYDRLIDGINEAIRQKLEAGA	-0.133
HMYSSASKEEIDQLMKRLILNLDAKGYFWPQDKEKSLKLYLHNLFSKLPLNSSDIRFLHGLIRALSEE	-0.693
HMFPELDEEEQKITKLLQAQNDLPANIIAVKTALNIGTTQAKLFSLEMKGVVKPYAGGFYHLL	0.0183
HMKPQIRRHEKITALVREHGFMSVEQLARELEVTPQTIRRDIGILSAENVLRRYHGGAALGD	0.148
HMNEKEAEEAAEAQTEVPDVTGMAPAQAKNMLYQAGLSSEYRGEGETVSRQLPPAGETVNRGTKAVLYL	0.2
HMLTLAVPNSINMRLDKYLSENIDYLSRSKIQGLINDGKVTINGENEKSSYKLNGDESIVIYYEE	-0.775
HMTNVYSLIGKRGIVVEDIDWQKGTGQVKIDGELWSVKTNEQINISKGTEVEVENIEGVKVFVKPI	-0.458
HMQSREISYSDFVASVERGEVATVILDGENIRFKGGDNVEYVTVRPADTNVTDLLIENQVVVRAEK	-0.824
HMSASAIYVRPKDVKEPEEVADYLSGVLELDREKLYKKITDKSQWIALIERKVDNDIAFDIRNKKFKGIEI	-0.784
HMDSLELADEVGRVSEALQELRPHQREVLELSLVHGRSHQQISEKTGLALGTVKSHARRGLMRVREMLGV	-0.162
HMDLDIQNYNLDEILELFKVSYDFDETELKKAHKMYLMTHPDKSNLNPNIFLFFVQAYDILRKLYEFR	-1.66
HMKQTFGAMLAALRKEKGMTQLELAEQMGVTDKAVSKWERDLSFPDVTSLPRLAEILEVSVDELMQ	-0.724
HMENMRLILASNLRRIREERRLSLNKVSELTGVSKSMLGQIERGESNPTLQTVWKIANGLRVSLTDLTEVP	0.252
HMLDPKVFVGKAGINEGIAKLLLQAFDKADLVKVRFTAERDVMETQMQELARLTGSEVIGNVGRTATF	0.168
HMHFENEETFVLPLVREGFSEQQQLEMVDRLLFDANTDNPRWIIDWMASELPSTQRELLLDLEKRLAEVRS	-0.358
HMSDAGMNQIGDMFRAPDLMAKLAMNPATREYVSQPDFLAMMEEVKRNPSALNNHLRDPRMMNVLSVAM	-0.48
HMKRLLLPGDLAGVRRHLLDRENSFHILRVLRLARGSTIEAMDDAGNRFSATLAGVKAGRALFDLAAKI	-0.245
HMISSKDIINDEDGARLGKIADVEIDVATGKILSVHVYRSFKLLHLFGNKDVVQIPWNKIMKIGSDVVIVE	-0.198
HMRIATVTPIEEDQASDRVVAVYNDIKSTKQIDFIPNFWKVIAVNPDLLEQVWGQLKTLMHPEEVG	-0.948
HMKLASIGDNIHTLRKNKGLTQSQLAGKLGVNVDTISNYEKGVSTPDFDIVEKLVNIFNVDAHSLLFK	-0.351
HMIPDPPALGSNLHRERRRQQLSLDALAAASGVSKAMLSQIEADKVNPTIATMWKIAHALNIDFETLLRGE	0.172
HMKNEYAMVIQVNGKLRGNMLVSADLEQKDIERMALDNEDIKRFISHENDVKKMIFVPKKLINIVT	≥ 0.43
HMSVTSIEGRVVYDENANKIGIAKQVGIDSTQSMVLVLTKNDGTEGSISWNNIKKIGEIILLGN	-1.34

Sequence	soluble fraction (log2)
HMDPYLSGLLQKLAETDKKISFTRLRSEDLDGESREAIYEFIEKYSGRFGVRWLLNEFGLSPSVYYNYLHS	-0.644
HMSLEDYVIIKNKTVKVYETEFDGAPVVTSSSVGQKLILVEYNDNFAKILYRAKDGLDYVGYIKRKDVYVR	-1.04
HMNTSITVPSLKGLSQEAATLKMERLGLHVEVSDTGFVRSLAFGTVLQQSIAPGEKVKPGRLVYITINSD	0.0638
HMSGIESIVIPLKGLDFDMISSTLTPQLKQAIKYDKQSDSIILVGTNAKVNIIAKQVNAMVEVYKLKT	-0.0326
HMTSGPAWPALSAQQRSVLAPLQRDWHTIDAARKAKWLEVAARFPSMPAEERQRVQERMAEWA	-0.0144
HMYHPGFEALREVARQGSFIKAARALGISGPAVSKQIKSLEARLNLVLLHRTTRAVTLTEAGQRLTEILD	-0.437
HMNIFKLYEENIGPLTPMIADILKEDEAEFPDYWIREAIEIAVKKNARNWKYVHAVLESWQKE	-0.259
HMTVTISPGYEGRLLRSYLKNTLSLSTSALARLKTREDGITVNGVRVTVRYVLHAGDLLQLAVD	0.22
HMEIYEEDRTKVVNDLMDQILNRQITMDAAATKFINIRNSLGTTITKEDEQNLEMLRGLIFDKT	-1.17
HMDEDLQEALRKLNPIQANERKLLLKMLEQHRWNVSSVAKAFDVSRNTLYRRLHKLHIPLSNPSE	0.172
HMESEAKLGVAFNGKTRFDMTFPADADNKTIEEAVLADERAQKYLEGFQVAKVIIVPKRMVNIVLK	≥ 0.43
HMRGFGYVRRLPSKRYQASYAGPDLQRHVAPTTFTTKADAESWLGAERKVVESGSWRPPAVREAEARLS	0.412
HMVDQKLIQASAEHSGIRIDRFLSEQLPEHSRSYIQKLIKDGQVSIGGKAVKSNYKIAGTEEISLLIPDQ	-0.224
HMQVSDVTELRTILEKVITENESVATEFKEGKDAAMNFLVGQGMKATRGAADPALLKEIITGIL	-0.358
HMSLSDADVERLLEVAIDIESLEEREGLYYQANESEPYSGWGKLMYDSGQVERLVPYKDGRWEGLWTIW	-1.18
HMKDPSLEHIDALAGKPFQAFPGQDHRAHITAHLNFMSTNMVRNNPSIMAAIQKNILEHISLMAQEQIQL	-0.683
HMSDPASLQRRLMSDPELTARILDSPFTRSLLDDPNLLRQMVNANPQLRRAMDANPQLRHAL	-0.261
HMDDPEISQEQRQQLFRTAKEHFGASGNDVLKEILADHGRDSTVKMPVSVFAEIMGDLLKRALD	-0.121
HMLPDHAPITMRQLAMLHVAKNKLDLTDEDYRSLLLLYGGVESSKQLNQEGLRRVLDRFKELGFEP	-0.258
HMKTKILAPIPGSIMVVDVKVGDTVKVGDRLVQLEAMKMENNITSEKAGKITAVLVTAGQKVLQNEVMIEL	-0.52
HMNNTIKFSVDSQNSGKRLDIFLTENIKNYTRSFLKKLIENRQVKLNNNFIISPSERVKFKDQININILQ	0.199
HMEVPDTIIRLRELVAAMPEQWQKVYRLVFMEGLSKAKAGKKIGISDVRVGQLVKKINAAIAGDETLK	0.0594
HMDVQGFVMDLDKPLDKEPIVEGFELKLEDSLTLVAAVNKDKSINSLFDELSKLGIKVKSMRNPP	-2.11
HMDLFSAVVHHIVGQQISTKAQATIWKRMRDEFGVVDAAAVLGAGVEKLQSFGMTFRKAEYITDFARKIE	-0.651
HMKDKSEKTKKLIFEAAFKIIREEGFSELSANKIAQVASVSKGVIFHHFSQMDDLYLFMLDTL	0.192
HMQESVTVSAQALRRLLEKGDGDAALLYLALLRHHGTIQPRALAGELRWERPRIEAAEEALRQMGLIA	0.121

Sequence	soluble fraction (log2)
HMQMSDTSMIRDLVLQVLAENPQSIEDFKNGKDRAVGFLVGMVMKKSQGKANPQITNQMIVEELKK	-0.277
HMPGLDTTILSDILSLKKELPSRSAAKILIMLILAKRIEEGSLNLRTINRILNQYGYTRESLL	0.327
HMKHAIKEKIRNEYVHGYLNEEGYRVMPTLDELIRKYEVPASSTYRASSKEGWKKQKEAFLEHLRGEIDA	-0.0601
HMGQVFEGTFNRKANGKNSVTPAEGGEPVFIAERNSLHAMNGDLVKVSLLAKKKHQPREAQVIEILKRSD	0.338
HMGYLNDRQRLIKDFITENQPLKVSDLVKQFPNIGLSTLKKDLQYLRGEQVLTMIGKGKGSVYVLNKK	≥ 0.43
HMSTISPNAFNFLQQNLNKFSDDAEGKMIKDILSKTTYDEYVKNEKSKTDFNSLLRRQTTTGDDNLNRYIN	0.072
HMSDTSELESIIAQIIEDNPKSIEDIGAGNQKAYGFLTGQVMKATKGQANPQVANKIIRELVARKLE	-0.41
HMRISMRDQVYEIIKNRILSREYSLGEPINIVHLSKELGISNTPIREALSQLETERLITINSNQKYHVT	-0.0135
HMPTFAEKLHEVRKARDFTQDQLAKEMNVSRQTISHWENGRAVPDIDTIKHLSQVLDYNFLV	-0.171
HMKHTQTDEGELLSTLRTLFPNSSSSSLRKMLTQGRILVNQEVVHRAKHALQAGDEIEVLARQ	0.0825
HMQMSERENTILLTKRYIERGEYERAMNLLDSLLIKNALDEEALAMIDEIIALKAGASLQDFPRY	-1.48
HMDGAPVTVIKNGEVDVATTMRVGLSASELMFKLRAAGVDEVQIVHRAVLEQNGQLTIIKYGEE	-1.2
HMQSNDAGELEAVVKGIIDANPKVVADYLAGNQKVVSFFVGQAMKATKGKANPKMVSEILGKLL	≥ 0.43
HMAELTTVQAADILHVSRPFLIKLLDEGQIPYHRVGKHRRIRMEDVMNYKRAIDQQREAVLDQLVAEA	0.014
HMNNILNYTIAELMEILKIDDLETENVINSSNNLINKSINENNFPLAEFYEDVKNNLIEFIETFDS	-1.08
HMQISGSEELEKIVQTVLEKNTDVVEEYKSGKTKVFAFLMGQVMKESRGKANPRLAKDILEKFLA	0.177
HMDLLAESLTRREAEVAALAARGLTNRAIAELFGLSVRTAETHLHRAMGKLGANRREDLLLHADRLDPG	-0.618
HMYRIGELAKLADVTPDTIRYYEKQQMMDHDVRTEGGFRLYSDNDLQRLKFIRYARQLGFTLEAIRELLSI	-0.51
HMNVGKYILTLAAKEGYSQSDVARRTGISRQMLSYIIAGERKLTLPQALKIESLLSLKTGTLILMQDED	0.219
HMPTMEQTYIGRTMIAEEDMGKNSKIKVSGIYWTAYNKGRVIKKGEEYKITGIEGNKLIVSSK	0.179
HMDSTLTNEIYNELYRAITHQELKPGQNLTLTMLKKQFNVSHTPIREALTRLSADGLVTYHPNKGMKVT	0.222
HMIGVIVDEVDPDSSLKSGDIITEVNREVILNIDDFVGLVEQIQKTGRSSLLLKILRDKKSLWVTIQFV	0.22
HMQVTDTGTIEGEIDKVLAANPDRVTEYHDGKEKILGWFVGQVMQTTKGKANPQMVNQLFLEKLK	-0.00465
HMANAGKFDSDMGEKINFPGNRVSLTPSELEAARELAAIMGDRFFSQLIPTTSKVTVTEMLQSLK	-0.849
